The source of these data is the Immune Epitope Database (IEDB).

Experiment [1] addresses HLA-A*31:01. Kind of experiment: IEDB peptide-MHC binding, purified MHC/competitive/fluorescence; filed as Kd, often an IC50 or EC50 that approximates it; ≥ and ≤ were set here for values at or beyond the usual limits of such assays. The following applies: source organism: Human immunodeficiency virus 1.
The next experiment addresses HLA-A*68:02. The experiment is described as above. The following applies: source organism: Human immunodeficiency virus 1.
The next experiment concerns the target HLA-B*08:02. Described as above. The following applies: source organism: Human immunodeficiency virus 1.
In a further experiment the target is HLA-A*02:03. Described as above. The following applies: source organism: Human immunodeficiency virus 1.
Experiment [2] concerns the target HLA-A*11:01. The description is as above. The following applies: source organism: Human immunodeficiency virus 1.
The next experiment has as its target HLA-A*30:01. The experiment is described as above. The following applies: source organism: Human immunodeficiency virus 1.
Experiment [3] has as its target HLA-A*26:01. Described as above. The following applies: source organism: Human immunodeficiency virus 1.
Experiment [4] concerns the target HLA-A*03:01. The description is as above. The following applies: source organism: Human immunodeficiency virus 1.
Experiment [5] concerns the target HLA-A*69:01. The description is as above. The following applies: source organism: Human immunodeficiency virus 1.
For another experiment, the target named is HLA-A*02:06. The description is as above. The following applies: source organism: Human immunodeficiency virus 1.
Experiment [6] deals with HLA-B*08:01. Described as above. The following applies: source organism: Human immunodeficiency virus 1.
For experiment [7], the target named is HLA-A*02:01. Described as above. The following applies: source organism: Human immunodeficiency virus 1.
The next experiment addresses HLA-A*26:03. The description is as above. The following applies: source organism: Human immunodeficiency virus 1.
For experiment [8], the target named is HLA-A*31:01. Kind of experiment: IEDB peptide-MHC binding, purified MHC/direct/fluorescence; filed as Kd, often an IC50 or EC50 that approximates it; ≥ and ≤ were set here for values at or beyond the usual limits of such assays. The following applies: source organism: Bacillus licheniformis.
A further experiment has as its target HLA-B*15:01. The description is as above. The following applies: source organism: Bacillus licheniformis.
The next experiment concerns the target HLA-B*07:02. Described as above. The following applies: source organism: Bacillus licheniformis.
The target in the next experiment is HLA-A*01:01. The experiment is described as above. The following applies: source organism: Bacillus licheniformis.
For another experiment, the target named is HLA-B*58:01. Described as above. The following applies: source organism: Bacillus licheniformis.
The target of the next experiment is HLA-B*27:05. Described as above. The following applies: source organism: Bacillus licheniformis.
Experiment [9] has as its target HLA-A*11:01. The experiment is described as above. The following applies: source organism: Bacillus licheniformis.
Experiment [10] addresses HLA-A*26:01. The experiment is described as above. The following applies: source organism: Bacillus licheniformis.
Experiment [11] concerns the target HLA-A*03:01. The description is as above. The following applies: source organism: Bacillus licheniformis.
In the next experiment the target is HLA-B*40:01. The description is as above. The following applies: source organism: Bacillus licheniformis.
Experiment [12] deals with HLA-A*69:01. Described as above. The following applies: source organism: Bacillus licheniformis.
For experiment [13], the target named is HLA-B*08:01. The experiment is described as above. The following applies: source organism: Bacillus licheniformis.
Experiment [14] concerns the target HLA-A*02:01. The description is as above. The following applies: source organism: Bacillus licheniformis.
In the next experiment the target is HLA-B*15:02. Briefly: IEDB peptide-MHC binding, purified MHC/competitive/fluorescence; filed as Kd, often an IC50 or EC50 that approximates it; ≥ and ≤ were set here for values at or beyond the usual limits of such assays. The following applies: source organism: Bacillus licheniformis.

On to VLYCVHQRV, for which the Kd (as a rule, the free concentration of one partner at which half of the binding sites on the other are occupied at equilibrium, for simple one-to-one binding) with HLA-A*31:01 [1] was 11.9 µM; with HLA-A*68:02, 0.223 µM; in the experiment with HLA-B*08:02, no less than 20 µM; with HLA-A*02:03, 0.0047 µM; with HLA-A*11:01 [2], 10.7 µM; in the experiment with HLA-A*30:01 it was 1.86 µM. Further, the Kd was no less than 20 µM with HLA-A*26:01 [3]; no less than 20 µM with HLA-A*03:01 [4]; no less than 20 µM with HLA-A*69:01 [5]; 0.0005 µM in the experiment with HLA-A*02:06; no less than 20 µM with HLA-B*08:01 [6]; 0.0098 µM in the experiment with HLA-A*02:01 [7]. Moreover, the dissociation constant Kd with HLA-A*26:03 was no less than 20 µM.

For VQIPEKKCF, the Kd with HLA-A*31:01 [8] was no less than 20 µM; in the experiment with HLA-B*15:01, 0.453 µM; with HLA-B*07:02 it was no less than 20 µM; with HLA-A*01:01, no less than 20 µM; in the experiment with HLA-B*58:01 it was no less than 20 µM; with HLA-B*27:05 it was no less than 20 µM. The Kd with HLA-A*11:01 [9], with HLA-A*26:01 [10], in the experiment with HLA-A*03:01 [11], with HLA-B*40:01, in the experiment with HLA-A*69:01 [12] and in the experiment with HLA-B*08:01 [13] was no less than 20 µM throughout. Besides, the equilibrium dissociation constant (Kd) with HLA-A*02:01 [14] and with HLA-B*15:02 was no less than 20 µM throughout.
